Usually Ki stands for the equilibrium dissociation constant of an inhibitor or competing ligand from its target.

Assay [1] concerns the target OR1, RASSL derived from the human kappa opioid receptor (human). Description: cell-based or functional assay.
The target in assay [2] is OR2, RASSL derived from the human kappa opioid receptor (human). Description: cell-based or functional assay.
Assay [3] addresses OR1, RASSL derived from the human kappa opioid receptor (human). Description: binding to the receptor expressed in COS-7 and CHO-KI cells; Ki, method only 'as previously described'.
Assay [4] has as its target OR2, RASSL derived from the human kappa opioid receptor (human). Described as above.

Take “Dynorphin A (from UniProt P01213 207-223) (peptide)”: the EC50, signaling (activation of G protein-mediated signal) came out at 61 nM in assay [1] and 1080 nM in assay [2]. Further, the Ki in assay [3] was found to be 14.6 nM; in assay [4], 125 nM.
